In patent US7763704B2, “Sushi peptide multimer” (priority 2003, dated 2010):

B1: rS3-4mer: recombinant tetramer of S3 peptide in tandem repeat with Asp-Pro linkers, 18.4 kDa, SEQ ID NO:9 (protein)
chain: PQDPHAEHKVKIGVEQKYGQFPQGTEVTYTCSGNYFLMDPQDPHAEHKVKIGVEQKYGQFPQGTEVTYTCSGNYFLMDPQDPHAEHKVKIGVEQKYGQFPQGTEVTYTCSGNYFLMDPQDPHAEHKVKIGVEQKYGQFPQGTEVTYTCSGNYFLMD

Columns and labels:
[1] = ELISA-based LPS binding assay; parameters: species or system Escherichia coli 055:B5; conditions: peptide concentration achieving 50% of maximum binding to LPS on the ELISA plate
Procedure: LPS was coated overnight on 96-well plates. Varying concentrations of peptides were allowed to interact with the immobilized LPS. The amount of bound peptides was determined by rabbit anti-S3 IgG and quantitated by ABTS substrate. The average OD405nm of the triplicate samples were calculated and plotted with the corresponding concentration.
The polysorp 96-well plate (MaxiSorp™, Nunc) was first coated with 100 μl per well of 4 μg/ml (approximately 1 μM) of LPS diluted in pyrogen-free phosphate-buffered saline (PBS). The plate was sealed and incubated overnight at room temperature. The wells were aspirated and washed 4 times with 300 μl wash solution (PBS containing 0.05% Tween-20). The wells were blocked with wash solution containing 2% BSA for 1 h at room temperature. After washing 2 times, varying concentrations of peptides were allowed to interact with bound LPS at room temperature for 3 h. Bound peptides were detected by incubation with rabbit anti-S3 antibody and 1:2000 of goat anti-rabbit antibody conjugated with HRP. Each antibody was incubated for 2 h at 37° C. In the final step, 100 μl of substrate, ABTS (Boehringer Mannheim), was added. The absorbance was measured at 405 nm with reference wavelength at 490 nm.

[2] = Surface plasmon resonance (BIAcore 2000, HPA chip) realtime interaction analysis between peptides and LPS; type: binding; conditions: 20 mM Tris-Cl, pH7.3; HPA chip immobilized with lipid A; mean of three independent experiments
Procedure: Surface plasmon resonance (SPR) analysis of the real time interaction between peptides and LPS was performed with BIAcore 2000 (Pharmacia) using HPA chip (Tan et al, 2000b). The affinity constant was calculated using BIAevaluation software 3.0. The mean values were obtained from three independent experiments.
At 4 μg/ml, both recombinant peptides reached saturation of binding to LPS (FIG. 4), while the chemically synthesized peptide continued linearly and required 20 μg/ml to reach saturation of binding with LPS (data not shown). The EBC50 (Endotoxin Binding Concentration) of the peptide, which achieves 50% of maximum binding to LPS on the ELISA plate, reflects the binding activity of peptide to LPS, with the lower EBC50 indicating higher potency. […] The kinetics of binding of peptides to LPS in 20 mM Tris-Cl, pH7.3, was also measured by SPR analysis with BIAcore 2000 using HPA chip, which was immobilized with lipid A (bioactive moiety of LPS). The Kd values of chemically synthesized S3, rS3-1mer and rS3-4mer are (7.80±2.18)×10^−7 M, (4.74±2.34)×10^−8 M, (1.71±1.86)×10^−8 M, respectively.

[3] = test system: LPS-induced limulus amoebocyte lysate (LAL) reaction; assay: Endotoxin neutralization assay based on anti-LAL test (LAL Kinetic-QCL); type: biochemical, Escherichia coli 055:B5; conditions: for ENC50 (50% endotoxin-neutralizing concentration), inhibition of LPS-induced LAL assay: against 5 EU/ml of LPS
Excerpt: The LAL Kinetic-QCL kit utilizes the initial part of the LPS-triggered cascade in limulus amoebocyte lysate to achieve an enzymatic reaction, which catalyses the release of p-nitroaniline from a synthetic substrate, producing a yellow color, which is quantifiable by absorbance at 405nm. The ENC50 (Endotoxin Neutralization Concentration) refers to the peptide concentration required to neutralize 50% of a predetermined quantity of endotoxin. A low ENC50 indicates high potency of the peptide for endotoxin neutralization.
In this assay, peptides of different concentrations were incubated for 1 h at 37° C. with or without an equal volume of LPS in disposable, endotoxin-free borosilicate tubes. Fifty microliters of each mixture was then dispensed into wells of a sterile microtiter plate (Nunclon™ Δsurface, Nunc). Fifty microliters of freshly reconstituted LAL reagent was dispensed into each well.

[4] = test system: LPS-induced hTNF-α secretion in THP-1 cells; assay: Suppression of LPS-induced hTNF-α secretion in human THP-1 cells; type: cell-based; conditions: for ENC50, concentration to achieve 50% inhibition of LPS-induced hTNF-α production: THP-1 cells incubated with 50 EU/ml of LPS, 6 h
Procedure: THP-1 cells were cultured at 37° C. in a humidified environment in the presence of 5% CO2. RPMI 1640 medium was supplemented with 10% fetal bovine serum (FBS), penicillin (100 U/ml), and streptomycin (100 μg/ml). The cells were maintained at a density of 2.5×10^5-6 cells/ml. THP-1 monocytes were transformed into macrophages by addition of phorbol myristic acid, PMA (Sigma) at a stock of 0.3 mg/ml in dimethyl sulfoxide to give a final concentration of 30 ng/ml and 0.01% dimethyl sulfoxide. PMA-treated cell suspensions were immediately plated into 96-well microtiter plate at a density of 4×10^5 cells/ml and allowed to differentiate for 48 h at 37° C. The culture medium was removed and the cells were washed twice with serum-free RPMI 1640. Thereafter, the macrophages were stimulated with 50 EU/ml LPS (a specific activity of LPS that has been standardized by LAL test against FDA-approved LPS standards), peptides alone or LPS (preincubated with various concentrations of peptides) and incubated at 37° C. After 6 h, the culture medium was collected and hTNF-α concentration in the supernatants was assayed using ELISA.

[5] = compared with rS3-1mer and chemically synthesized S3

Molecule | EBC50 (Endotoxin Binding Concentration) [1] | Kd [2] | ENC50 (50% endotoxin-neutralizing concentration), inhibition of LPS-induced LAL assay [3] | ENC50, concentration to achieve 50% inhibition of LPS-induced hTNF-α production [4] | fold stronger LPS neutralization efficacy than the monomeric peptides (LAL inhibition) [3, 5] | fold higher anti-LPS activity than the monomers (suppression of TNF-α release) [4, 5]
rS3-1mer: recombinant S3 monomer from acid digestion of rS3-4mer, with additional Asp and Pro at the ends, SEQ ID NO:7 (PHAEHKVKIGVEQKYGQFPQGTEVTYTCSGNYFLMD) | 1.02 µg/mL | 0.0474 µM | 9.2 µg/mL | 83.2 µg/mL |  | 
B1 | 0.41 µg/mL | 0.0171 µM | 5.4 µg/mL | 40.4 µg/mL | 2 fold | 2 fold
